Results on 1 substance are retold here after paper PMC4294777.

The assay addresses Klp5-3FLAG (fission yeast) (UniProt O14343). The assay can be described thus: co-IP; protein extracts (4 mg or 8 mg) of metaphase-arrested cut9-665 cells (36°C, 2.5 hours) added to protein A Dynabeads coated with anti-Flag antibodies; blotted with anti-Flag and anti-Myc.
Sequence of UniProt O14343 (O14343 whole entry): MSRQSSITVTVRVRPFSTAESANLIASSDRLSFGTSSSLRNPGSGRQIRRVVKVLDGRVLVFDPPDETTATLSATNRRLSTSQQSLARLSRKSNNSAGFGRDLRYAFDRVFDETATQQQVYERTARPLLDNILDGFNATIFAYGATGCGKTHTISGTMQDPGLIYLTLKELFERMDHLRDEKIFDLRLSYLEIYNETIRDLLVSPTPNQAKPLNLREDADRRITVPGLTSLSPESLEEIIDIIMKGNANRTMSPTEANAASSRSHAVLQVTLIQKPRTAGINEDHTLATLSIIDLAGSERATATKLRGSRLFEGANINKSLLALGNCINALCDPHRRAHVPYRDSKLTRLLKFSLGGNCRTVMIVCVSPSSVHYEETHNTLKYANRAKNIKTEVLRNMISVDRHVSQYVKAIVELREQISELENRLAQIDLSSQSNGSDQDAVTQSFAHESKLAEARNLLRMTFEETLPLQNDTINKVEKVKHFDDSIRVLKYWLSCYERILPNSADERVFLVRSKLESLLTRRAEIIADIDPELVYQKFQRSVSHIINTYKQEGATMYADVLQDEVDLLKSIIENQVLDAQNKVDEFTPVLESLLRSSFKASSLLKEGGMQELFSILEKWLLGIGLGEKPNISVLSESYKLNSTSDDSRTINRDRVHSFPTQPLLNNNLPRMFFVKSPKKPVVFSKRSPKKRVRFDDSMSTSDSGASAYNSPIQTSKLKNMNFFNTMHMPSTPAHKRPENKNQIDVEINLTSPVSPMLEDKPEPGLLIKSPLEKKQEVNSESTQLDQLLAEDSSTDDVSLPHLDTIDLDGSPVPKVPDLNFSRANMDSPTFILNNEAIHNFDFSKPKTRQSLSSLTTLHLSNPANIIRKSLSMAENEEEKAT

Substance “Alp7-LA6-Myc (from UniProt Q9URY2 1-474) (natural protein)” returned a reduction of binding compared to Alp7 greater than 70%.
